Tested on: MS2 coat protein
Assay: apparent KD of MS2 coat protein; higher = weaker reporter binding
Conditions: Eterna round: R107
In short: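 Designed RNA switches were transcribed on-chip from Illumina sequencing clusters. They were then titrated with SNAP-549-labelled MS2 coat protein (twofold steps, 0.7 or 1.5 nM to 3 µM; 0.8–1.5 h to 10–20 min per step) in 100 mM Tris-HCl pH 7.5, 80 mM KCl, 4 mM MgCl2, without or with constant ligand. Apparent KD is the per-design median of normalised cluster binding-curve fits.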

[1] = input ligand: theophylline 20 uM
[2] = input ligand: theophylline 2 mM
[3] = input ligand: tryptophan 2.4 mM

Sequence	apparent KD of MS2 coat protein (input ligand: arginine 13.2 mM) [µM]	apparent KD of MS2 coat protein [1] [µM]	apparent KD of MS2 coat protein [2] [µM]	apparent KD of MS2 coat protein (input ligand: none) [µM]	apparent KD of MS2 coat protein [3] [µM]
CUGUGUCCUUCGGCCGCCACUACAUGAGGAUCACCCAUGUCGUUACGGCUCCCAAUGACGCUUUGUAGGACCGGGAAGGAGUAUG [Tienancebe]	0.00927	0.0159	0.0109	–	–
AAUAGCUUGAGGAUCACCCAAGUAAAAGAUACCAGAGUGAUGAUCCUCCCUUGGCAGCUUAACGCUGAUUGAUUACAAUCAGCGA	0.0465	0.0939	0.106	0.0338	0.0351
GCGAUGGAGCGAAGGAGCGGCUAAAUGUAACACAUGAGGAUCACCCAUGUUCCAAGAUGUGGCCAGGUAGGUCGCGCUCCAUCGC [SSAB NP+V+V2 #15]	0.0618	0.229	0.185	0.175	0.144
UGUAUGGACUGAAGGAGCGGGUUGAUAACUUGAGGAUCACCCAGGUAAAAGGCGAAAGCCACCCAGGUAGGUCGCAGUCCAUACU	0.0526	0.0582	0.0692	0.0579	0.0662
AUACAUGAGGAUCACCCAUGUUAUAGUGAAGGAGCGACGUUUAUGUCAGGUAGGUCGCACUGUUGUUUAAUGAUUCUUGGAUCUU [#21 Exclusion - Arginine A]	0.0153	0.0225	0.0135	0.0132	0.0164
GGUAUUGGAACAGAUACCAGUAUCUGUUGAUCCUACAUGAGGAUCACCCAUGUUAGAAAGUACCCUUGGCAGCUGUAAUAAUGCC [Theo B Ex t1]	0.0527	0.0766	–	–	0.0494
GUCGCUGAGGGAAGGAGCGUGAAGACAUGAGGAUCACCCAUGUAGAGGCGCCGAAGGCGUUCGCAGGUAGGUCGCCCUCAGUGAA [#1 Same State - Arginine B Attempt #25 (HarryS)]	0.0124	0.0221	0.0161	0.0141	0.0151
UGUAUGGACUGAAGGAGCGCAUCAAAAUAACAUGAGGAUCACCCAUGUAAGGCGAAAGCCGUGCAGGUAGGUCGCAGUCCAUACU [ArgBX 3]	0.0149	0.0173	0.0188	0.0156	0.0153
AAACCAAGGGAUGGGUGCCUUGGUAGUGAUACCAGCCUGGAAACAGGCCCUUGGCAGCACAUGAGGAUCACCCAUGUGAAAUAAU [TheoAX 18#OpenEnded]	0.0229	0.0896	0.0692	0.0277	0.0466
UUAAUCAUUAUAGAAAACUAUAAUGCAGAAGGAGCGUGAUAAAACACAGGUAGGUCGCUGAAGGGAACAUGAGGAUCACCCAUGU [AstrosSSArgA#6]	0.0213	0.0378	0.0394	0.0303	0.0288
CUCCUGGGAGCGGCCGCCACUGGAGGCCUCGCGCGACAUGAGGAUCACCCAUGUUGGCCCGGCCUCAGGACCGGGUUCGCGCGAG [Same State - Tryptophan B Attempt #3]	0.00801	0.0179	0.0106	0.0129	0.01
AAUUAUCAGUCGGCCGCCACUGACACAUGAGGAUCACCCAUGUAACUUGGGAUAAAUUUAAUAAACAGGACCGGGACAAAGGCUA [JR_ExcTryptoB_Sub011]	0.0366	0.0507	0.0499	–	–
ACGCCCAGGUAGGCUUAGUGGGAUAUGGAAGGAGCGCCGAUGCAGGCAGGUAGGUCGCCAUAGAACAUGAGGAUCACCCAUGUAA [#05 Same State - Arginine A]	0.0313	0.0379	0.0331	0.0328	0.0271
ACAUGAGGAUCACCCAUGUAUUACCGGGAAGGAGCGCGUGAAAACGCAGGUAGGUCGCUCGGCGUCGUGCUGUAAAGCACGACGA [#1 Same State - Arginine A Attempt #25 (HarryS)]	0.0133	0.0162	0.0156	0.0115	0.0134
CAGCCACAUGAGGAUCACCCAUGUGAUGAUACCAGCUUCGUCUUAAGCCCUUGGCAGCAUAUCUCUUUGUUCUCAUACAUAGCAU [theeternabot_sameState_MS2_Theo_A_16]	0.012	0.0173	–	–	0.0114
CCCAAAUAGAUAUUUGGGAUUUUACUCGAAGGAGCGUCAUAGUAGGCAGGUAGGUCGCGAGACAUGAGGAUCACCCAUGUAGAGA [ss-argA-N]	0.0341	0.0459	0.0451	0.0411	0.0409
AUAACAUGAGGAUCACCCAUGUAAGCUGAAGGAGCGGACGAAAGUCCAGGUAGGUCGCAGCGUUCCUUCACCUCAUGAGAAGGAG [SSArg-A #30 with U all better]	0.0178	0.0375	0.024	0.0225	0.0216
